Experimental findings from patent publication US20250163183A1 (COAGULANT THERAPEUTICS, published 2025) are described below.

The target in assay [1] is T1, human APC-PPACK (active site-blocked APC) (human, UniProt P04070 43-461, active site bound by the tripeptide inhibitor Phe-Pro-Arg-chloromethylketone (PPACK)).
T1 construct: Bought (Haematologic Technologies)
Briefly: ELISA.

Assay [2] has as its target T2, human protein C (PC) zymogen (human, UniProt P04070 43-197; P04070 200-461).
T2 construct: Bought
Briefly: ELISA screen, PC-coated wells, OD450, n=2 [Continued]. A general note: In an ELISA, binding on a coated surface is turned into a signal by an enzyme label.

T1 sequence (P04070 other isoform, or with tags, fused parts or gaps): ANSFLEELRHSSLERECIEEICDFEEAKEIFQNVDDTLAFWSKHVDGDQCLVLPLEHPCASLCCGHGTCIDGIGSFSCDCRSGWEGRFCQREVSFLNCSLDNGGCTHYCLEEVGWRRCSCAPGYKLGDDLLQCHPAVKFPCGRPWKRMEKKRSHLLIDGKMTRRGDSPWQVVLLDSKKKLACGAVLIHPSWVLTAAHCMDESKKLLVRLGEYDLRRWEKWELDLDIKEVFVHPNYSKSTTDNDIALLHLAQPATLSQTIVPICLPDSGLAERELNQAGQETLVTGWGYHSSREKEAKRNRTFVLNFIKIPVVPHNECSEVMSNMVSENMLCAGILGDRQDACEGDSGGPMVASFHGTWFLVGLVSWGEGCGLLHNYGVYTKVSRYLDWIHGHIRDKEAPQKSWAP
T2 sequence (P04070 43-197, chain 1 of 2): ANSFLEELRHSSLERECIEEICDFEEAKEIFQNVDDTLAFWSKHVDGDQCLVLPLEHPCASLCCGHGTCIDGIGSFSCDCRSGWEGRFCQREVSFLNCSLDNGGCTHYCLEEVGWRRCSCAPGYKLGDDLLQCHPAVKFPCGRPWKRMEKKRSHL
T2 sequence (P04070 200-461, chain 2 of 2): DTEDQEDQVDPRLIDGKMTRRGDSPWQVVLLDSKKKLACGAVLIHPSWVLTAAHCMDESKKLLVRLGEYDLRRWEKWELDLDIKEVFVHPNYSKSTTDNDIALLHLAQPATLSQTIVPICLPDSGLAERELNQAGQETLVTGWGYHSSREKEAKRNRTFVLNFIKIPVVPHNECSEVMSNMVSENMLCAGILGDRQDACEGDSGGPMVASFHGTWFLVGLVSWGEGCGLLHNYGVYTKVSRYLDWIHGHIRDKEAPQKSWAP

B1: SR16983-R3-P3-C06 (VHH)
VHH: QLQLVESGGGLVQPGGSLRLSCAASGFTFSTKWMYWVRQGPGKGLEWVSTIDASGGSTYYADSVKGRFTISRDNTEKKVYLQMNSLESADTAVYYCARSAGGQFRGRGTQVTVSS
B1: the binding result in assay [1] is reported as “binds”; in assay [2], “no binding”.

B2: SR16983-R2-P4-G06 (VHH)
VHH: EVQLVESGGGLVQAGGSLRLSCTTSGSTFSITAGGWYRQAPGKQRELVADIANDGSTTYADSVKGRFTISRDNAKNTVELQMSSLKLEDTAVYLCFVVGISDSTPRPRAYWGQGTQVTVSS
With B2, the binding result is “binds” in assay [1] and “no binding” in assay [2].

B3: SR16983-R3P2H05 (VHH)
VHH: QLQLVESGGGLVQPGGSLRLACAASGFSFDDYAIGWFRQAPGKEREGVSCITSDGSTYYADSVKGRFTISSDYAKNTVHLQMNSLKPEDTAVYYCARGGLLLPKPELFDDWGQGTQVTVSS
B3: the binding result is given as “binds” in assay [1] and “no binding” in assay [2].

B4: SR16983-R3-P3-G05 (VHH)
VHH: QLQLVESGGGLVQAGGSLRLSCAASGFTLDDYAIGWFRQAPGKEREGVSCIASSDGSTYYADSVKGRFTISTDNAKNTVYLQMNSLKPEDTAVYYCARGGLLLPKPELFDSWGQGTQVTVSS
Turning to B4, the binding result in assay [1] is “binds”; in assay [2] it was “no binding”.

B5: SR16983-R3-P3-A12 (VHH)
VHH: QLQLVESGGGLVQPGGSLRLSCAVSGFTLDDYAIGWFRQAPGKEREGVSSIATSDGSTYYADSVKGRFTISSDNAKNTVYLQMNSLKPEDTAVYYCARGGLLLPRPELYEYWGQGTQVTVSS
As for B5, the figures for the binding result in assay [1] and in assay [2] were “binds” and “no binding”, respectively.

B6: SR16983-R3-P4-A05 (VHH)
VHH: QLQLVESGGGLVQAGGSLRLSCAASGFTLDDYAIGWFRQAPGKEREGVSCIATSDGSTYYADSVKGRFTISSDAAKNTVYLQMDSLKPEDTAVYYCARGGLLLPKPELFDGWGQGTQVTVST
Take B6: the binding result is on record as “binds” in assay [1] and “no binding” in assay [2].

B7: SR16983-R2-P2-G11 (VHH)
VHH: QVQLVESGGGLVQAGGSLRLSCAASGTTFSFNYMGWYRQAPGNQRDLVARISSGGITNYADSVKGRFTISGDNAKNVVYLQMNSLKPEDTARYYCFYNGHLNKWGQGTQVTVSS
With B7, the binding result is given as “binds” in assay [1] and “no binding” in assay [2].

B8: SR16983-R3-P5-C03 (VHH)
VHH: QLQLVESGGGLVQAGGSLRLSCAASGTTFSFVYMGWYRQAPGNQRELVARLSSDGSTNYADSVKGRFLISGDNAKNTVYLQMNSLKPEDTARYYCFYNGHLNKWGQGTQVTVSS
On to B8, for which the binding result in assay [1] was “binds”; in assay [2] it was “no binding”.

B9: SR16983-R3-P4-F06 (VHH)
VHH: QLQLVESGGGLVQAGGSLRLSCEASRTTFSFNYMGWYRQAPGNQRDLVARISSGGITNYADSVKGRFTISGDNAKNTVYLQMNSLKPEDTARYYCFYNGHLNKWGQGTQVTVSS
For the molecule B9, the binding result in assay [1] was “binds”; in assay [2], “no binding”.

B10: SR16983-R3-P2-E09 (VHH)
VHH: QLQLVESGGGLVQAGGSLRLSCAASGTTFSFNYMGWYRQAPGNQRDLVARISSGGSTNYADSVKGRFTISADNAKNTVYLQMNSLKPEDTARYTCFWNGYTNKWGQGTQVTVSS
With B10, the figures for the binding result in assay [1] and in assay [2] were “binds” and “no binding”, respectively.

B11: SR16983-R3-P2-B02 (VHH)
VHH: QLQLVESGGGLVQAGGSLRLSCAASGTTFSFVYMGWYRQAPGNQRDLVARISSDGSTNYADSVKGRFTISGDNAKNIVYLQMNSLKPEDTARYYCFYNGHLNKWGQGTQVTVSS
In the case of B11, the binding result in assay [1] is reported as “binds”; in assay [2], “no binding”.

B12: SR16983-R2-P5-H07 (VHH)
VHH: QVQLVESGGGLVQAGGSLRLSCAASGTTFSFVYMGWYRQAPGNQRELVARISSDGSTNYSDSVKGRFLISGANAKNTVYLQMNSLKPEDTARYYCFYNGHLNKWGQGTQVTVSS
Regarding B12, the binding result in assay [1] is listed as “binds”; in assay [2] it was “no binding”.

B13: SR16983-R3-P2-G05 (VHH)
VHH: QLQLVESGGGLVQTGGSLRLSCAASGTTFSFVYMGWYRQAPGNQRDLVARISSDGSTNYADSVKGRFTISGGNAKNTVYLQMNSLKPEDTARYYCFYNGHLNKWGQGTQVTVSS
Turning to B13, the binding result in assay [1] is “binds”; in assay [2], “no binding”.

B14: SR16983-R3P2G08 (VHH)
VHH: QLQLVESGGGLVQAGGSMRLSCTASGSTVRVTAGGWYRQAPGNERELVADIDNGGSTTYADSVKGRFTISRDNAKNAVDLQMNSLKPEDTAVYRCFVIAIPDSAPRPRAYWGQGTQVTVSS
Take B14: the binding result in assay [1] is “binds”; in assay [2], “no binding”.

B15: SR16983-R3P2H01 (VHH)
VHH: QLQLVQSGGGLVQAGGSLRLSCTASGSTVRVTAGGWYRQTPGNERELVADIDNGGSTTYADSVKGRFTISRDNAKNAVDLQMNSLKPEDTAVYRCFVIAIPDSAPRPRAYWGQGTEVTVSS
Turning to B15, the binding result in assay [2] is “no binding”.

B16: SR16983-R3-P4-A07 (VHH)
VHH: QVQLVESGGGLVQAGGSLRLSCAASGRTFVGSYVMGWFRQAPGKEREFVAASSRSTGNTVYLDSVKGRFTVSRDDAKNTLYLQMNSLKPEDTAVYYCATRASINYNYAAWPYWGQGTQVTVSS
For the molecule B16, the binding result in assay [1] was “binds”; in assay [2], “no binding”.

B17: SR16983-R3-P4-H10 (VHH)
VHH: QVQLVESGGGLVQAGGSLRLSCAASGLTSSTYVMAWFRQAPGKEREFVSVIDSRGDTTYANSVKGRFTTSRDFGKNTVYLQMNSLQPEDTALYYCAARASPAYVARLYAYWGRGTQVTVSS
B17: the binding result in assay [1] is listed as “binds”; in assay [2] it was “no binding”.

B18: SR16983-R2-P3-F07 (VHH)
VHH: QLQLVESGGGLVQAGGSLRLSCAASGTTFDMNSMGWYRQAPGFKRDLVATISIGGDTNYTDSVKGRFTISRDNAKNTVYMQMNSLKPEDTAVYYCNAERIWPNRRSFWGQGTQVTVSS
Turning to B18, the binding result in assay [1] is “binds”; in assay [2], “no binding”.

B19: SR16983-R3-P5-D01 (VHH)
VHH: QLQLVESGGGLVQAGGSLRLSCAASGTTFDMNSIGWYRQAPGKQRELVATISIGGSTNYADSVKGRFTISRGNAKNTVYMQMNSLKPEDTAVYYCNAERIWPNRRTFWGQGTQVTVSS
Regarding B19, the binding result in assay [1] is on record as “binds”; in assay [2], “no binding”.

B20: SR16983-R3-P2-D12 (VHH)
VHH: QLQLVESGGGLVQAGGSLRLSCAASGSTFNFNIMGWYRQVPGKQRELVAVINSGGSADYTEDVKGRFTISRDNAKSIMYLQMNSLKPEDTAVYYCNAKKVEPTLFTTTYWGQGTQVTVSS
In the case of B20, the values for the binding result in assay [1] and in assay [2] were “binds” and “no binding”, respectively.
